Results from US12233135B2, “Therapeutic constructs for treating cancer” (PRECISION MOLECULAR INC., priority 2018, dated 2025).

Tested on: B16F10-Red-FLuc mouse melanoma cells
Assay: Syngeneic model of experimental metastasis to the lung using B16F10-Red-FLuc cells
Assay type: in vivo
Conditions: Example 9
Protocol: B16F10-Red-FLuc mouse melanoma cells (Perkin Elmer, Waltham, MA, USA) were cultured in RPMI 1640 cell culture medium supplemented with 10% FBS, 1% GlutaMAX™, and 1% penicillin-streptomycin, and grown at 37° C. in a humidified cell culture incubator supplied with 5% CO2. The cells were harvested by trypsinization, washed twice in HBSS and counted (using trypan blue exclusion). The final cell density was adjusted with HBSS to 3.5×10e6 cells/mL. 100 μL of cell suspension, consisting of 3.5×10e5 cells, was discharged into the tail vein of mice at the start of the study (Day 0). Imaging was performed on study Day 5, when the presence of lung tumors was confirmed in sufficient animals to commence the study. Imaging was performed as described in Example 6.
9.5% Trehalose buffer and nanoparticles containing PEG-lucia, PEG-mIL12, PEG-TK-mIL12, PEG-mIL2-mIL12 and PEG-TK-mIL2-mIL12 (each 60 μg/vial) were reconstituted in 300 μL of nuclease-free water per vial on the day of dosing to give dosing solutions of 200 μg/mL. Formulated test articles were stored at 4° C. and used on day of reconstitution.
9.5% Trehalose buffer and nanoparticles containing PEG-lucia, PEG-mIL12, PEG-TK-mIL12, PEG-mIL2-mIL12 and PEG-TK-mIL2-mIL12 were administered via intravenous injection (i.v.) on Study Days 5, 8, 11, 14 and 17. Treatments were administered at a dose of 2 mg/kg in a dosing volume of 10 mL/kg on Study Days 5, 11, 14 and 17. Due to declining body weight in all groups apart from the vehicle control at Day 6, the dose was reduced to 1 mg/kg in 5 mL/kg for the dose administered on Study Day 8. Dosing then resumed at 2 mg/kg in 10 mL/kg on Study Day 11 as per protocol.
The anti-tumor effect of nanoparticles containing PEG-mIL12 and expressing mIL-12 was compared to recombinant mIL-12 protein administered subcutaneously. The experimental design was as Example 8 but nanoparticles were prepared at N/P=4 and N/P=6 ratios. Nanoparticles were dosed as before for N/P=6, however, for the N/P=4 formulation the dose was maintained at 2 mg/kg in 10 mL/kg at day 8. […]

B1: recombinant mIL-12: recombinant mIL-12 protein (PeproTech) administered subcutaneously (protein, UniProt P43431 23-215; P43432 23-335, looked up)
Interleukin-12 subunit alpha: RVIPVSGPARCLSQSRNLLKTTDDMVKTAREKLKHYSCTAEDIDHEDITRDQTSTLKTCLPLELHKNESCLATRETSSTTRGSCLPPQKTSLMMTLCLGSIYEDLKMYQTEFQAINAALQNHNHQQIILDKGMLVAIDELMQSLNHNGETLRQKPPVGEADPYRVKMKLCILLHAFSTRVVTINRVMGYLSSA
Interleukin-12 subunit beta: MWELEKDVYVVEVDWTPDAPGETVNLTCDTPEEDDITWTSDQRHGVIGSGKTLTITVKEFLDAGQYTCHKGGETLSHSHLLLHKKENGIWSTEILKNFKNKTFLKCEAPNYSGRFTCSWLVQRNMDLKFNIKSSSSSPDSRAVTCGMASLSAEKVTLDQRDYEKYSVSCQEDVTCPTAEETLPIELALEARQQNKYENYSTSFFIRDIIKPDPPKNLQMKPLKNSQVEVSWEYPDSWSTPHSYFSLKFFVRIQRKKEKMKETEEGCNQKGAFLVEKTSTEVQCKGGNVCVQAQDRYYNSSCSKWACVPCRVRS
- Median survival compared with Trehalose control (Log-rank test, p≤0.01 for PEG-mIL12 formulations, p≤0.05 for recombinant mIL-12): significantly longer
- tumor growth by luminescence compared with 9.5% Trehalose control (Study Day 19): significant (p≤0.05) inhibition of tumor growth
- Median survival time (nanoparticles 2 mg/kg i.v., recombinant mIL-12 s.c. 4 μg/kg then 12 μg/kg, Trehalose control 22.0 days): 25.0 days
